Measurements taken from patent US20070025968A1, “Methods for selecting and producing T cell peptide epitopes and vaccines incorporating said selected epitopes” (priority 1996, published 2007).

Molecular target: other cell components, including other HLA class I alleles, of the B-LCL lines

FL-labeled HLA-A*0301 reference peptide KVFPC(FL)ALINK
relative peptide-binding percentage: < 20%
